By EC50 (read off the curve) is commonly meant the midpoint of the concentration-response curve.

Positions count from the first letter of the chain named.

For assay [1], the target named is T1, EC5 deletion mutant of human CDH6 (human, UniProt P55285 54-790).
T1 construct: In p3×FLAG-CMV-9; also called EC5-deleted hCDH6
T1 sequence: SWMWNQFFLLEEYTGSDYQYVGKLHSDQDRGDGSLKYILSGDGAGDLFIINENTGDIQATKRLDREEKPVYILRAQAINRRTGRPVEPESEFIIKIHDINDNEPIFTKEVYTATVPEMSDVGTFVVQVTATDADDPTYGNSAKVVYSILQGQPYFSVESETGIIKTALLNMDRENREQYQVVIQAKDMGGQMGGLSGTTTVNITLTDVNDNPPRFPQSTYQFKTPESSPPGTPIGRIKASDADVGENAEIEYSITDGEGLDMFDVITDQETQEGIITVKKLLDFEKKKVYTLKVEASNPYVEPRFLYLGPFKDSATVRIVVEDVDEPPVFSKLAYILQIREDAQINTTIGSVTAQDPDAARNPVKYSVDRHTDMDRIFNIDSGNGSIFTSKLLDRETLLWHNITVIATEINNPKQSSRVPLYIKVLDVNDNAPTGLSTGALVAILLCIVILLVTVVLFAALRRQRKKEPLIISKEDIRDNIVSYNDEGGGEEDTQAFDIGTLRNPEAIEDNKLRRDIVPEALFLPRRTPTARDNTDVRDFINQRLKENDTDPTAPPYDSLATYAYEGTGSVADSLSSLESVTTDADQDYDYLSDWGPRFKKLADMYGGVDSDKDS
Description: flow cytometry; 293α cells transfected with EC5-deleted hCDH6 (open) vs untransfected control cells (shaded); APC anti-human IgG. The method, then:
(§1) Thereafter, the cells were suspended by the addition of each of the 4 humanized hG019 antibodies (clone Nos: H01L02, H02L02, H02L03 and H04L02), which had been prepared in Example 5)-5-3, or the anti-CDH6 antibody NOV0712, which had been prepared in Reference Example 1, or human IgG1 (Calbiochem) as a negative control. The cells were left standing at 4° C. for 1 hour. The cells were washed twice with PBS supplemented with 5% FBS, and then suspended by the addition of APC-anti-human IgG goat F(ab′)2 (Jackson ImmunoResearch Laboratories, Inc.) that had been 500-fold diluted with PBS supplemented with 5% FBS. The cells were left standing at 4° C. for 1 hour. The cells were washed twice with PBS supplemented with 5% FBS, followed by detection using a flow cytometer (Canto II; BD Biosciences). The data was analyzed using FlowJo (Tree Star, Inc.). In the histograms of FIGS. 7-1 to 7-6, the abscissa depicts APC fluorescence intensity indicating the amount of the antibody bound, and the ordinate depicts cell count. […] Fluorescence intensity is enhanced when the antibody binds to full-length hCDH6 or each EC domain deletion mutant on cell surface. The human IgG1 control binds to none of the transfected cells.
(A flow cytometer gives signals particle by particle.)

Assay [2] deals with T2, human CDH6 (full-length, on cells) (human, UniProt P55285 54-790).
T2 construct: also called hCDH6; full-length hCDH6
T2 sequence: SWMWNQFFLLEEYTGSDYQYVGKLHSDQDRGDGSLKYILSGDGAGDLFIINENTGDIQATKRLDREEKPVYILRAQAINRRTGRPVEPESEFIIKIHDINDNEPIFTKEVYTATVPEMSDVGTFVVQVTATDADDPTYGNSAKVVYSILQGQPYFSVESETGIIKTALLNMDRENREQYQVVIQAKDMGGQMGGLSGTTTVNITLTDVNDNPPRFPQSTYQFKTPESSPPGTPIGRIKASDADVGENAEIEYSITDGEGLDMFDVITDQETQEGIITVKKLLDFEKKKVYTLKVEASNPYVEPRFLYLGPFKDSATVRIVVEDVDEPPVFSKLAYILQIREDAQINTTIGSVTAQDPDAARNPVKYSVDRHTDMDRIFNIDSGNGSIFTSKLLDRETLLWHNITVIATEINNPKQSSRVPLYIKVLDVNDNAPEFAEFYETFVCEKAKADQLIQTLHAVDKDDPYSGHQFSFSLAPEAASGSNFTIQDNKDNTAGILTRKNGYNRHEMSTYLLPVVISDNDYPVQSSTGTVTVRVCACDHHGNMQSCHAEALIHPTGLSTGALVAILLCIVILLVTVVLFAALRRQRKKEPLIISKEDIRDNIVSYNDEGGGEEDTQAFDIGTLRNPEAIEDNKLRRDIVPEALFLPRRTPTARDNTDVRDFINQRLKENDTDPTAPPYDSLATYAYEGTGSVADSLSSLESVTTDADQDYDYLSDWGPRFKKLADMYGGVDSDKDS
Description: flow cytometry; 293α cells transfected with full-length hCDH6 (open) vs untransfected control cells (shaded); APC anti-human IgG. The protocol:
as §1, with “The cells were cultured overnight under conditions of 37° C. and 5% CO₂, and thereafter, a cell suspension was prepared. […] Thereafter,” for “Thereafter,”

Assay [3] concerns the target T2, human CDH6 (full-length, on cells). Description: flow cytometry, MFI vs antibody concentration; 293α cells transfected with pcDNA3.1-hCDH6; PE anti-human IgG Fcγ. The protocol: (§2) The CDH6-binding activity of the human chimeric anti-CDH6 antibody chG019 purified in 4)-2 was confirmed by flow cytometry. […] The cells were cultured overnight under conditions of 37° C. and 5% CO₂, and thereafter, a cell suspension was prepared. chG019 was added to the suspension of each of these cells. The cells were left standing at 4° C. for 1 hour. Thereafter, the cells were washed twice with PBS supplemented with 5% FBS, and then suspended by the addition of PE-labeled F(ab′)2 Fragment anti-human IgG, Fcγ antibody (Jackson ImmunoResearch Laboratories, Inc.) that had been 500-fold diluted with PBS supplemented with 5% FBS. The cells were left standing at 4° C. for 1 hour. The cells were washed twice with PBS supplemented with 5% FBS, and then re-suspended in PBS supplemented with 5% FBS, followed by detection using a flow cytometer (Canto II; BD Biosciences). The data was analyzed using FlowJo (Tree Star, Inc.). […] In FIG. 5, the abscissa depicts antibody concentration, and the ordinate depicts the amount of the antibody bound, based on mean fluorescence intensity.

Assay [4] addresses T3, cynomolgus monkey CDH6 (on cells) (cynomolgus monkey, UniProt P55285 54-790 (human entry)).
T3 construct: Expressed from pcDNA3.1-cynoCDH6; also called cynoCDH6
T3 sequence: T2 sequence with Y300H, H457R, A707G
Description: flow cytometry, MFI vs antibody concentration; 293α cells transfected with pcDNA3.1-cynoCDH6; PE anti-human IgG Fcγ. The method, then: as §2

B1: anti-CDH6 antibody NOV0712 (antibody, V domains shown)
VH: QVQLLESGGGLVQPGGSLRLSCAASGFTFSSHGMHWVRQAPGKGLEWVSVISGSGSNTGYADSVKGRFTISRDNSKNTLYLQMNSLRAEDTAVYYCARQWGSYAFDSWGQGTLVTVSS
VL: DIQMTQSPSSLSASVGDRVTITCRASQSISSYLNWYQQKPGKAPKLLIYAVSTLQSGVPSRFSGSGSGTDFTLTISSLQPEDFATYYCQQSGTFPPTTFGQGTKVEIKR
notes: also called NOV0712 antibody; labeled NOV0712
For the molecule B1, the binding result was “no binding (tested: not given (single concentration))” in assay [1] and “binds” in assay [2].

B2: human chimeric anti-CDH6 antibody chG019 (antibody, human IgG1)
heavy: not shown
light: DIQMTQSPSLLSASVGDRVTLNCKASQNIYKNLAWYQQKLGEGPKLLIYDANTLQTGIPSRFSGSGSGSDFTLTISSLQPEDVATYFCQQYYSGWAFGGVTNLELKRAVAAPSVFIFPPSDEQLKSGTASVVCLLNNFYPREAKVQWKVDNALQSGNSQESVTEQDSKDSTYSLSSTLTLSKADYEKHKVYACEVTHQGLSSPVTKSFNRGEC
notes: Human IgG1/kappa chimera; also called chG019 antibody; chimeric G019 antibody
For the molecule B2, the “EC50 (read off the curve)” value in assay [3] and in assay [4] was roughly 0.01 µg/mL throughout.

The values are drawn from patent US20200171163A1 (Daiichi Sankyo, published 2020).
